Measured values: the supplement of paper PMC12042874
± gives the uncertainty stated by the source.

Assay: amyloid nucleation score (Sup35N fusion, yeast selection) (log enrichment); library NNK1; higher = more nucleation; inactive = no reads after selection
Summary of the method: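 Peptides of 20 random codons, each fused to Sup35N, were expressed in psi-negative yeast. Cells were induced with 100 μM copper sulfate for 24 hours and grown 7 days at 30°C on medium lacking adenine and uracil, and plasmid inserts before and after selection were Illumina-sequenced. Nucleation scores are DiMSum log enrichments of output over input reads, centred on the mode score of non-aggregating sequences, and sequences under 100 input reads were excluded.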
APLEFWRGTVVAWLWYLCPF showed an amyloid nucleation score of 0.303 ± 0.41. Work on APQSYVVVWFCVARKRCSWD yielded an amyloid nucleation score of -0.303 ± 0.53. With APSAVS the amyloid nucleation score was 0.876 ± 0.53. For ARAVFLGEVGSAFFCRQSVW, the amyloid nucleation score was 0.273 ± 0.74. ARIMFVPWSLNDLWLGRFSM showed an amyloid nucleation score of -0.263 ± 0.45. With ARLLSQVEAEASWSNTY the amyloid nucleation score was 0.568 ± 0.43. For ARRLFAAMLLRDWVPLTSQM, the amyloid nucleation score was 1.27 ± 0.66. Substance ARSSK has an amyloid nucleation score of -0.081 ± 0.23. Substance ARSVKAIIKAICRGV has an amyloid nucleation score of -0.055 ± 0.95. In the case of ARTKGSVAPTTLHANNGAWS, the amyloid nucleation score is reported as -0.053 ± 0.39. ARTRVTLSR showed an amyloid nucleation score of -0.072 ± 0.98. In the case of ARVTVNGFLWCYNLGIRLDF, the amyloid nucleation score is reported as -0.779 ± 1.6. For ARWLIEAVWSMYRFHYIGKR, the amyloid nucleation score was -0.722 ± 0.52. For ASAWARNVVRSTVMKVSWVG, the amyloid nucleation score was 0.543 ± 0.45. Work on ASDMSCMQSNSYFNLCTYTM yielded an amyloid nucleation score of 5.28 ± 0.064. ASFHNVQIGAYNMCKMNKGC showed an amyloid nucleation score of 1.75 ± 0.34. ASKMALYPG gave an amyloid nucleation score of 0.366 ± 0.56. With ASMID the amyloid nucleation score was 0.002 ± 0.27. Work on ASRYRKFTLWN yielded an amyloid nucleation score of -0.466 ± 0.31. In the case of ASVILIVPINLYLYVVYVWI, the amyloid nucleation score is reported as 3.2 ± 0.15. ATGINTGMTSNYSVMEMWGF showed an amyloid nucleation score of 0.937 ± 0.48. With ATQRKDIA the amyloid nucleation score was “inactive”. ATQSVFSKWVGGIRWWCVLL showed an amyloid nucleation score of -0.65 ± 0.88. In the case of ATRFTR, the amyloid nucleation score is reported as 0.282 ± 0.5. For ATTALAMGGSNDTMGYGVRC, the amyloid nucleation score was 0.006 ± 0.4. ATYAYRFRLVSTIICLD gave an amyloid nucleation score of -0.222 ± 1.4. Work on AVDMTWYIVVSMLHMLDASV yielded an amyloid nucleation score of 1.26 ± 0.76. Substance AVGSDWDVYWVPRRMRMMCS has an amyloid nucleation score of -1.84 ± 2.7. In the case of AVIEYR, the amyloid nucleation score is reported as -0.582 ± 0.32. AVMCYDNTSSNVSFN gave an amyloid nucleation score of -0.279 ± 0.28. With AVRVTLKL the amyloid nucleation score was 1.31 ± 0.2. AVYGAECDCAWFTPYSVVAD showed an amyloid nucleation score of 0.19 ± 0.36. AWGCMMAYFTGRLISEVSNS showed an amyloid nucleation score of -0.529 ± 0.36. Work on AWHEGFHCCN yielded an amyloid nucleation score of 1.21 ± 0.31. With AWHTRPQTKTERPLRPVFRA the amyloid nucleation score was -0.733 ± 0.69. AWLLLEDWFVNRVILICGAK showed an amyloid nucleation score of 0.027 ± 0.27. With AYAILMRKMVIHADLLARC the amyloid nucleation score was -0.006 ± 0.7. With AYCTLNR the amyloid nucleation score was 0.603 ± 0.36. AYFMDASFNVFIDISFGGGL showed an amyloid nucleation score of 8.115 ± 0.046. AYIKNQ gave an amyloid nucleation score of -0.305 ± 0.47. AYKGMSLPDRIFKWLVWWHN gave an amyloid nucleation score of 0.008 ± 0.53. Substance AYKVSRKLKVLRFDFIEV has an amyloid nucleation score of -0.477 ± 0.71. AYNIVDRSYLGSCKPESFVG gave an amyloid nucleation score of 0.469 ± 0.44. Substance AYRNKETMCSLRTCRMVCSR has an amyloid nucleation score of 0.206 ± 0.34. In the case of AYVKLILCLCRNLDWK, the amyloid nucleation score is reported as 2.98 ± 0.24. Substance AYYVRGRNLLFVTIGYGYLC has an amyloid nucleation score of -1 ± 1. CACVIRIFNLMVMWDILYWS gave an amyloid nucleation score of 0.748 ± 1.2. For CARYNASDRGEASYLIEHCG, the amyloid nucleation score was -0.224 ± 0.57. In the case of CAYSNKE, the amyloid nucleation score is reported as 0.228 ± 0.34. CCFRRVTSRVPGRTMEGNCF gave an amyloid nucleation score of -0.264 ± 1.2. For CCGLSDLYDVAVERVGGLLN, the amyloid nucleation score was -1.26 ± 1.1. CCIVSGFALSSTTRMNVR showed an amyloid nucleation score of 1.77 ± 0.15. For CCLGRR, the amyloid nucleation score was -0.151 ± 0.52. Substance CCTDIISQRIVGYLMVVC has an amyloid nucleation score of -0.755 ± 0.68. For CCWSYR, the amyloid nucleation score was 2.51 ± 0.13. Substance CDFAYRDWCHKMRYRYTRPC has an amyloid nucleation score of 0.38 ± 0.39. CDKGPGCWVRMKQPGRLQMG gave an amyloid nucleation score of 3.46 ± 0.076. Work on CDRAIPLSIHTELMYRRSRG yielded an amyloid nucleation score of 1.11 ± 0.38. CEFGSGQALIYGYTMYTWTT gave an amyloid nucleation score of 0.703 ± 0.49. Work on CESQMSRVDVLSCYMYGSVM yielded an amyloid nucleation score of 0.303 ± 0.4. For CEVRFLCWYGFIWRYN, the amyloid nucleation score was -0.336 ± 0.74. Substance CEWAAGRTWMKLGSSSTKTK has an amyloid nucleation score of 3.87 ± 0.12. With CFCVD the amyloid nucleation score was 1.01 ± 0.19. For CFDNIGGCFNPHDY, the amyloid nucleation score was -0.184 ± 0.43. For CFDVQ, the amyloid nucleation score was 2.29 ± 0.61. CFFFPPEYTKRLKSSSMVRR showed an amyloid nucleation score of -0.652 ± 0.9. In the case of CFIGANPLRNQWMRSTRIVP, the amyloid nucleation score is reported as 0.28 ± 0.61. CFLSLVWQHGHWWEGLESRL gave an amyloid nucleation score of 0.714 ± 0.53. With CFMCTGAGCILNEMPRNLLG the amyloid nucleation score was 7.793 ± 0.071. Work on CFSKLEISFDESFR yielded an amyloid nucleation score of -0.154 ± 0.28. In the case of CFTKIFDDYSWCFGAGANQS, the amyloid nucleation score is reported as 0.348 ± 0.28. Work on CFVPY yielded an amyloid nucleation score of -0.109 ± 0.53. In the case of CFYMVSFEFR, the amyloid nucleation score is reported as 1.12 ± 0.34. For CGFKLVVVCFMK, the amyloid nucleation score was 3.47 ± 0.2. In the case of CGGTNILWVRSLPHGLDVHD, the amyloid nucleation score is reported as -0.204 ± 0.39. CGLERTCRRGPSELTCTLYE gave an amyloid nucleation score of -0.201 ± 0.56. With CGNSFTKLTTMLTRHHIADG the amyloid nucleation score was 0.437 ± 0.38. In the case of CGQLACVEPNWLSIKVMFRN, the amyloid nucleation score is reported as “inactive”. With CHCCEVSWCSVWKVCIYCNI the amyloid nucleation score was 5 ± 0.088. Substance CHCGVL has an amyloid nucleation score of 0.702 ± 1.1. CHEALDLMCHADTVIFALAE showed an amyloid nucleation score of -0.216 ± 0.57. In the case of CHEQHSASREYVDREYGKYS, the amyloid nucleation score is reported as “inactive”. For CHSTGGT, the amyloid nucleation score was -0.468 ± 1.9. With CIDCYYRVCRFWSDSQAR the amyloid nucleation score was 0.552 ± 0.74. CIFGHWAFFDCNCYILYVLY showed an amyloid nucleation score of 2.27 ± 0.23. For CIGTHRIRFNSLLYRDQPII, the amyloid nucleation score was -0.15 ± 0.86. CIISNVCTRVGGKMGSYGYS gave an amyloid nucleation score of 0.133 ± 0.4. In the case of CILGNME, the amyloid nucleation score is reported as “inactive”. In the case of CILLYMQKSIGFGNSVKFAF, the amyloid nucleation score is reported as “inactive”. In the case of CILVARKAVLNCGGWKRSVR, the amyloid nucleation score is reported as 6.27 ± 0.067. CILWDWMYEGMKTSEGIFDR showed an amyloid nucleation score of 0.118 ± 0.71. With CIMLRMFVYESYSVCVVVA the amyloid nucleation score was “inactive”. Work on CITANMDENLVSRIRWASEY yielded an amyloid nucleation score of 0.462 ± 0.79. For CKEINL, the amyloid nucleation score was -0.374 ± 0.6. Substance CKRRIQMKLLS has an amyloid nucleation score of -0.244 ± 0.37. CKTCFTLRKIF gave an amyloid nucleation score of -0.461 ± 0.38. For CKVSSSFS, the amyloid nucleation score was 0.258 ± 0.34. CKYVRTQVWSHRLPADNCLT showed an amyloid nucleation score of -0.997 ± 0.98. For CLEDFLDNLFSSGYFKFQLV, the amyloid nucleation score was “inactive”. In the case of CLIISRVVRSVTNIMEMNNG, the amyloid nucleation score is reported as 0.251 ± 0.45. In the case of CLLYCTYVMRLTMLKILVVI, the amyloid nucleation score is reported as 1.27 ± 0.63. In the case of CLNGGNFYRSLTRAKTNKNF, the amyloid nucleation score is reported as -0.258 ± 1.1. CLQMRSVSYVIMRFTGKLTW gave an amyloid nucleation score of 0.693 ± 0.32. In the case of CLSGGFMPTYKVIWRQGCYG, the amyloid nucleation score is reported as “inactive”. Substance CLSRHLKNGPRMA has an amyloid nucleation score of 0.495 ± 1. With CLTSRQMMQKLMRYIKNDLG the amyloid nucleation score was -0.051 ± 0.32. CLVIRFILHLSCK gave an amyloid nucleation score of 0.587 ± 0.54. CLVYVQLWVARMSYPCVRFG gave an amyloid nucleation score of 0.214 ± 0.32. In the case of CLWSSVGRQTEWFSHEVNGG, the amyloid nucleation score is reported as 0.017 ± 0.43. CLYVTPYMLFYLLVSNGTEC showed an amyloid nucleation score of -1 ± 0.35. CMAHIYCWDICYNERWGFYI gave an amyloid nucleation score of 4.11 ± 0.052. CMHFVYNIKVRIIPDEYDHS gave an amyloid nucleation score of 4.6 ± 0.091. With CMVMLGSEQKFYMVVRPLKI the amyloid nucleation score was -0.085 ± 0.41. Substance CNDHNNEYVNVSHTRRARL has an amyloid nucleation score of 0.99 ± 0.24. Work on CNFKIVSWVVNQVLFFSHFA yielded an amyloid nucleation score of -1.37 ± 2.1. With CNGAGNLEGDGF the amyloid nucleation score was 0.317 ± 0.33. For CNILVTRFSNSREFNRCTWR, the amyloid nucleation score was “inactive”. Work on CNITWSFSDRLWY yielded an amyloid nucleation score of 0.476 ± 0.27. With CNQMSFFTEALVNKLHLFFT the amyloid nucleation score was “inactive”. For CNVEAG, the amyloid nucleation score was -1.55 ± 1.1. For CNVKCLRVARFDFVYRFFLP, the amyloid nucleation score was “inactive”. CPAWFFCIVKKYFKTVAQTV showed an amyloid nucleation score of 0.291 ± 0.48. Work on CPCWLLMLFPCISYRRNLIV yielded an amyloid nucleation score of -0.605 ± 0.46. In the case of CPIWPVCWEVNHVPYLTKDI, the amyloid nucleation score is reported as 0.58 ± 0.79. CPYRYYHTNLFMVIFLYRGM gave an amyloid nucleation score of -0.349 ± 0.47. In the case of CQCGMVGVL, the amyloid nucleation score is reported as -0.005 ± 0.45. CQFYWLTGPCMRRLRCGSVQ showed an amyloid nucleation score of 0.052 ± 0.36.
